This note sets out measurements from US20190263896A1 (UNIVERSITY OF ZURICH, published 2019).

What is called EC50 (read off the curve) is the midpoint of the concentration-response curve. Read a high EC50 (read off the curve) as weaker potency.

The target of experiment [1] is T1, synthetic Abeta1-42 peptide (UniProt P05067 672-713).
T1 construct: domain: Abeta1-42; also called linear synthetic Abeta1-42 monomers
Description: ELISA, synthetic Abeta1-42 peptide coated on the plate.

Experiment [2] concerns the target T2, recombinant human NI-101.11 antibody.
T2 construct: also called human antibody against brain beta-amyloid
Kind of experiment: competition ELISA: NI-101.11 (1nM) pre-incubated with the peptide at 10 nM to 10 µM, then binding to the coated plate (the coat is not named) [right panel]. Background: ELISA stands for enzyme-linked immunosorbent assay.

The target in experiment [3] is T3, monomeric synthetic Abeta (UniProt P05067 672-713).
T3 construct: also called monomeric Abeta; linear monomeric Abeta peptide
Kind of experiment: ELISA, monomeric synthetic Abeta coated on the plate, antibody titrated.

Experiment [4] addresses T4, artificial amyloid fibrils prepared from synthetic Abeta1-42 peptides (UniProt P05067 672-713).
T4 construct: domain: Abeta1-42; Fibrillar assembly of many copies; also called Abeta1-42 fibrils; synthetic Abeta fibrils
Kind of experiment: ELISA, fibrillar Abeta1-42 coated on the plate, antibody 0.1pM to 100nM [right panel].

B1: recombinant NI-101.12 (antibody, V domains shown)
VH: EVQLVESGPGLVKPAETLSLTCTVSGGSIRSGSICWYWIRQPPGKGLEWIGYFCYSGATFYTPSLRGRLTISVDASKNQLSLSLSSVTAADTAVYYCARRAGENSGGIEPYYGMDVWGQGTTVTVSS
VL: EIVLTQSPSSLSASIGDRVTITCRASESINKYVNWYQQKPGKAPKLLIYAASSLQSGAPSRVSGSGFGRDFSLTISGLQAEDFGAYFCQQSYSAPYTFGQGTKVEIKR
B1: the binding result in experiment [1] is reported as “binds”.

B2: linear synthetic N-terminal Abeta-derived polypeptide representing positions 1 to 16 (peptide)
peptide: DAEFRHDSGYEVHHQK
notes: domain: Abeta1-16; the numbers count on the Abeta peptide; also called Abeta1-16; monomeric Abeta1-16
With B2, in experiment [2], the binding result was “no binding (tested: 10 µM)”.

B3: control antibody 22C4 (antibody, V domains shown)
VH: QVQLQQSGPELVKPGASVKISCKTSGYTFTEYTMHWVKQSHGKSLEWIGGVNPYNDNTSYIRKLQGKVTLTVDRSSSTAYMELRSLTSEDSAVYFCARYGGLRPYYFPMDFWGQGTSVTVSS
VL: DIVLTQSPAILSASPGEKVTLTCRASSSVNYMHWYQQKPGSPPKAWIYATSNLASGVPDRFSASGSGTSYSLTISRVEAEDAATYYCQQWRTNPPTFGAGTKLELK
For the molecule B3, the “EC50 (read off the curve)” value in experiment [3] is about 1 nM.

B4: recombinant human antibody NI-101.13A (antibody, V domains shown)
VH: QVQLQESGPGLVKPSETLSLTCTVSGGSISRRSYYWGWIRQSPGKGLEWSGSIHYSGSTYYNPSLKSRVTISVDTSKNQFSLKLSSVTAADTAVYYCARSRWGSSWVFDYWGQGTLVTVSS
VL: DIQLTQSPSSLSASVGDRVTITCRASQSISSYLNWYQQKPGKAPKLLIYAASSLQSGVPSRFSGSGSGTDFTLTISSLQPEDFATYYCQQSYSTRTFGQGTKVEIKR
For B4, the binding result in experiment [4] was “binds”.

B5: recombinant human antibody NI-101.13B (antibody, V domains shown)
VH: QVQLQESGPGLVKPSETLSLTCTVSGGSISRRSYYWGWIRQSPGKGLEWSGSIHYSGSTYYNPSLKSRVTISVDTSKNQFSLKLSSVTAADTAVYYCARSRWGSSWVFDYWGQGTLVTVSS
VL: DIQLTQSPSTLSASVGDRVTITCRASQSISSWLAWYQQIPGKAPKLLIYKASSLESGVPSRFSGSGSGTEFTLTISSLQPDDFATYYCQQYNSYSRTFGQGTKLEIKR
For the molecule B5, the binding result in experiment [4] was “binds”.
